Reference: patent US20180193496A1 (PHILOGEN S P A, published 2018)
Values belong to the binder of their own block, whether it stands above or below them.

Assays:
[1] = target: T1, catalytic domain of human MMP3 (amino acids 100-273), recombinant (human, UniProt P08254 100-273, biotinylated (in the ELISA)); experiment: ELISA on biotinylated catalytic domain, scFv
T1 construct: range 100-273; also called HsMMP3; human MMP3 catalytic domain

[2] = target: T2, recombinant peptide consisting of amino acids 262-534 of tenascin-W (human, UniProt Q9UQP3 262-534); experiment: Biacore, tenascin-W 262-534 on a CM-5 chip, scFv
T2 construct: also called recombinant tenascin-W peptide used to isolate the G10 antibody
T2 sequence: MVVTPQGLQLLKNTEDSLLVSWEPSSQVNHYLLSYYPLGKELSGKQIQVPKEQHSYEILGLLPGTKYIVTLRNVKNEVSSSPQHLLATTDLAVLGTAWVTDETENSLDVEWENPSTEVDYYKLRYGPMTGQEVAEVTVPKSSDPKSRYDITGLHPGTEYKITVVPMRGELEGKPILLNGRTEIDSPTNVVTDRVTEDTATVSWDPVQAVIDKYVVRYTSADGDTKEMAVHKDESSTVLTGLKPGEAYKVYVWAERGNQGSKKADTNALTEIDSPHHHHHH
Protocol: A monomeric fraction of the purified G10 antibody was analyzed by surface plasmon resonance (BIAcore, 3000 system). A recombinant peptide consisting of amino acids 262-534 of tenascin-W was covalently coupled to the surface of the CM-5 sensor Chip. Twenty-five microliters of each sample were injected at the flow rate of 10 μL/min. The regeneration of the chip was performed with 5 μL of 10 mM glycine-HCl, pH 2.5 (GE Healthcare).

T1 sequence (P08254 100-273 limits assumed): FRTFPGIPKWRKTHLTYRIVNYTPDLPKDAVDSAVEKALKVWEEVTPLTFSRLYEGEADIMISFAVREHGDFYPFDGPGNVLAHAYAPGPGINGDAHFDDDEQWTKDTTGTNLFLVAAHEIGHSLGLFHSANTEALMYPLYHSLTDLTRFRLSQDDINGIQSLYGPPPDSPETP

binding result [1]: binds
B1: anti-human MMP3 antibody CH01 in scFv format (scFv, V domains shown)
VH: EVQLLESGGGLVQPGGSLRLSCAASGFTFSPYAMSWVRQAPGKGLEWVSAITGQGGVTYYADSVKGRFTISRDNSKNTLYLQMNSLRAEDTAVYYCAKISSFHFDYWGQGTLVTVSS
VL: EIVLTQSPGTLSLSPGERATLSCRASQSVSSHHLAWYQQKPGQAPRLLIYDASSRATGIPDRFSGSGSGTDFTLTISRLEPEDFAVYYCQQPRGAPTTFGQGTKVEIK
notes: The scFv is myc-tagged (detected with anti-myc 9E10); also called scFv(CH01)

binding result [2]: binds
B2: antibody G10 in scFv format (scFv, V domains shown)
VH: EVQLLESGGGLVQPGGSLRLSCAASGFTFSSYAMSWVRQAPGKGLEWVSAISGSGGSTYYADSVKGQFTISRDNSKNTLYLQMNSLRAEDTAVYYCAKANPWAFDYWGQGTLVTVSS
VL: SELTQDPAVSVALGQTVRITCQGDSLRSYYASWYQQKPGQAPVLVIYGKNNRPSGIPDRFSGSSSGNTASLTITGAQAEDEADYYCNSSGSQRSPVVFGGGTKLTVL
notes: The monomeric fraction was used in Biacore
